Data as given in US20020103133A1.
Non-standard residues stand in square brackets, D forms with d. Dox = doxorubicin conjugated to the C-terminal Leu; hPhe = N[C@@H](CCc1ccccc1)C(=O)O

Target: MMPs of HT1080 cells
Test: cell-based or functional assay

Ac-PLG[hPhe]K(Me2)L-Dox [acetyl-P-L-G-Hof-(N,N-dimethyl-K)-L-Dox]
Fraction of L-Dox, 0 hours, minus MMP inhibitor: 0 | Fraction of L-Dox, 0 hours, plus MMP inhibitor: 0 | Fraction of L-Dox, 3 hours, minus MMP inhibitor: 0.1 | Fraction of L-Dox, 3 hours, plus MMP inhibitor: 0.004 | Fraction of L-Dox, 5.5 hours, minus MMP inhibitor: 0.2 | Fraction of L-Dox, 5.5 hours, plus MMP inhibitor: 0.01 | Fraction of L-Dox, 8 hours, minus MMP inhibitor: 0.46 | Fraction of L-Dox, 8 hours, plus MMP inhibitor: 0.02
